One block for each substance: values may come before it.
How the values were obtained:
Experiment in all cases: SEC; size-exclusion chromatography on Superdex 200 of purified recombinant hGlyRS; dimer and monomer forms fractionated; dimer to monomers
[1] = target: human glycyl-tRNA synthetase H418R variant (hGlyRS-H418R), recombinant (human)
[2] = target: human glycyl-tRNA synthetase S211F variant (hGlyRS-S211F), recombinant (human)
[3] = target: human glycyl-tRNA synthetase, wild type (hGlyRS-WT), recombinant (human)

dimer:monomer (D:M) ratio, dimer part (dimer parts against 3.0 monomer parts) [1]: 7
stoichiometry N [1]: 2
Substance: human glycyl-tRNA synthetase H418R variant (hGlyRS-H418R), recombinant (enzyme)

dimer:monomer (D:M) ratio, dimer part (dimer parts against 6.2 monomer parts) [2]: 3.8
Substance: human glycyl-tRNA synthetase S211F variant (hGlyRS-S211F), recombinant (enzyme)

dimer:monomer (D:M) ratio, dimer part (dimer parts against 0.9 monomer parts) [3]: 9.1
stoichiometry N [3]: 2
Substance: human glycyl-tRNA synthetase, wild type (hGlyRS-WT), recombinant (enzyme)
